US20240343831A1 (Regeneron, published 2024)

Columns and labels:
[1] = target: T1, ectodomain of human TMPRSS2-myc-myc-His (human, UniProt O15393 106-492); assay: SPR Biacore T200, mAb captured by anti-human Fc, 37 C, dissociation in PBS-T pH 6.0
T1 construct: extracellular domain; also called hTMPRSS2-MMH; human TMPRSS2-MMH
Method: (§1) Dissociation rate constant (kd) for TMPRSS2 binding to purified anti-TMPRSS2 monoclonal antibody was determined using a real-time surface plasmon resonance based Biacore T200 biosensor platform. […] The CM5 Biacore sensor surface derivatized by amine coupling with an anti-human Fc specific mouse mAb was used to capture different anti-TMPRSS2 mAbs. All the TMPRSS2 reagents were expressed with a C-terminal myc-myc-hexahistidine tag (subsequently referred to as TMPRSS2-MMH).
(§2) Dissociation rate constants (kd) in two running buffers were determined by fitting the real-time binding sensorgrams to a 1:1 binding model using Scrubber 2.0c curve-fitting software.

[2] = target: Macaca fascicularis TMPRSS2-MMH (Macaca fascicularis); assay: SPR Biacore T200, mAb captured by anti-human Fc, 25 C, HBS-P pH 7.4
[3] = target: Macaca fascicularis TMPRSS2-MMH (Macaca fascicularis); assay: SPR Biacore T200, mAb captured by anti-human Fc, 37 C, dissociation in PBS-T pH 7.4
[4] = target: Macaca fascicularis TMPRSS2-MMH (Macaca fascicularis); assay: SPR Biacore T200, 37 C, t½ at pH 7.4 over t½ at pH 6.0
[5] = target: T1, ectodomain of human TMPRSS2-myc-myc-His; assay: SPR Biacore T200, mAb captured by anti-human Fc, 37 C, HBS-P pH 7.4
Method: (§3) The equilibrium dissociation constant (KD) for TMPRSS2 binding to different TMPRSS2 monoclonal antibodies (mAbs) was determined with a real-time surface plasmon resonance biosensor using a Biacore T200 instrument. All binding studies were performed in 10 mM HEPES, 150 mM NaCl, and 0.05% v/v Surfactant Tween-20, pH 7.4 (HBS-P) running buffer at 25° C. and 37° C. […] At the end of each cycle, the TMPRSS2 mAb captured surface was regenerated using a 12 sec injection of 20 mM phosphoric acid.
(§4) The association rate (kₐ) and dissociation rate (kd) were determined by fitting the real-time binding sensorgrams to a 1:1 binding model with mass transport limitation using Scrubber 2.0c curve-fitting software. Binding dissociation equilibrium constant (KD) and dissociative half-life (t½) were calculated from the kinetic rates as:

[6] = target: T1, ectodomain of human TMPRSS2-myc-myc-His; assay: SPR Biacore T200, mAb captured by anti-human Fc, 25 C, HBS-P pH 7.4
Method: as §3, §4

[7] = target: T1, ectodomain of human TMPRSS2-myc-myc-His; assay: SPR Biacore T200, mAb captured by anti-human Fc, 37 C, dissociation in PBS-T pH 7.4
Method: as §1, §2

[8] = target: Macaca fascicularis TMPRSS2-MMH (Macaca fascicularis); assay: SPR Biacore T200, mAb captured by anti-human Fc, 37 C, dissociation in PBS-T pH 6.0
[9] = target: Macaca fascicularis TMPRSS2-MMH (Macaca fascicularis); assay: SPR Biacore T200, mAb captured by anti-human Fc, 37 C, HBS-P pH 7.4
[10] = target: T1, ectodomain of human TMPRSS2-myc-myc-His; assay: SPR Biacore T200, 37 C, t½ at pH 7.4 over t½ at pH 6.0
Method: as §1, §2

[11] = target: T2, mouse TMPRSS2-MMH (mouse, UniProt Q9JIQ8 105-490); assay: SPR Biacore T200, mAb captured by anti-human Fc, 37 C, dissociation in PBS-T pH 7.4
T2 construct: extracellular domain; also called mTMPRSS2-MMH
T2 sequence (Q9JIQ8 105-490): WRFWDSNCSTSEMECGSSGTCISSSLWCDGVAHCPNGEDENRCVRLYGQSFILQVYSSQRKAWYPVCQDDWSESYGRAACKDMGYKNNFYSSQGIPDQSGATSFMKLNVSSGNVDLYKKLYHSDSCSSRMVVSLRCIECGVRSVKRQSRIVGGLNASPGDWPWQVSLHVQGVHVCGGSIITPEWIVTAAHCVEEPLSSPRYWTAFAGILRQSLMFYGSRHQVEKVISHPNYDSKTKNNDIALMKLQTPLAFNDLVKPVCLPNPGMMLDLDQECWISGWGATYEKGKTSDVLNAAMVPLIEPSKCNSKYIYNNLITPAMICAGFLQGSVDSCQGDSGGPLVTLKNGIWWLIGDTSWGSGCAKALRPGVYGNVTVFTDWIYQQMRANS
Method: as §1, §2

[12] = target: T2, mouse TMPRSS2-MMH; assay: SPR Biacore T200, mAb captured by anti-human Fc, 37 C, HBS-P pH 7.4
Method: as §3, §4

[13] = target: T2, mouse TMPRSS2-MMH; assay: SPR Biacore T200, 37 C, t½ at pH 7.4 over t½ at pH 6.0
Method: as §1, §2

[14] = target: T2, mouse TMPRSS2-MMH; assay: SPR Biacore T200, mAb captured by anti-human Fc, 25 C, HBS-P pH 7.4
Method: as §3, §4

[15] = target: T2, mouse TMPRSS2-MMH; assay: SPR Biacore T200, mAb captured by anti-human Fc, 37 C, dissociation in PBS-T pH 6.0
Method: as §1, §2

T1 sequence (O15393 106-492): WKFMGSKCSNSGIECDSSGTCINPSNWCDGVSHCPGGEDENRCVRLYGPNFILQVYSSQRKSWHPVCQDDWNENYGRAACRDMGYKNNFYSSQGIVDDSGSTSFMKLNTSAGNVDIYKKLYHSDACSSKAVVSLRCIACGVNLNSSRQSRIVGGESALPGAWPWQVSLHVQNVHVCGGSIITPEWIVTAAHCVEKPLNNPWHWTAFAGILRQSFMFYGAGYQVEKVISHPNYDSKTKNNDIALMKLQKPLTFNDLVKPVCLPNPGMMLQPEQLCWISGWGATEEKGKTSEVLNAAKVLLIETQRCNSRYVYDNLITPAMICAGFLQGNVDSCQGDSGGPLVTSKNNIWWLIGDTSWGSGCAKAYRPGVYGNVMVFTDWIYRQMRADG

B1: mAb8021 (antibody, human IgG4 S228P, kappa, V domains shown)
VH: QVQLVQSGAEVKKPGASVRVSCKASGYTFTNYGITWVRQAPGQGLEWMGGISVYNGNTEYAEKFQGRVSMTTDTSTTTAYLELRSLKSDDTAVYFCARGQLDYFDPWGQGTLVTVSS
VL: EIVMTQSPATLSVSPGERATLSCRASQSVRSNLAWYQQKPGQAPSLLIYGASTRATGIPARFSGSGSGTEFTLTISSLQSEDFAVYFCLQYNNWWTFGQGTKVEIKR
notes: also called anti-TMPRSS2 mAb
- koff [1]: 0.000129 s⁻¹
- t½ [1]: 90 min
- 100 nM mfTMPRSS2-MMH Bound (RU) [2]: 63.4 RU
- Kd [2]: 0.0252 nM
- koff [2]: 0.000113 s⁻¹
- kon [2]: 4.48e+06 M⁻¹ s⁻¹
- t½ [2]: 102 min
- 100 nm Ag Bound (RU) [3]: 71 RU
- koff [3]: 0.000127 s⁻¹
- t½ [3]: 91 min
- t½ Ratio (pH 7.4/pH 6.0) [4]: 0.9
- Kd [5]: 0.0627 nM
- koff [5]: 0.000261 s⁻¹
- kon [5]: 4.17e+06 M⁻¹ s⁻¹
- t½ [5]: 44.2 min
- Kd [6]: 0.0299 nM
- koff [6]: 9.19e-05 s⁻¹
- kon [6]: 3.08e+06 M⁻¹ s⁻¹
- t½ [6]: 126 min
- koff [7]: 0.000192 s⁻¹
- t½ [7]: 60 min
- 100 nm Ag Bound (RU) [8]: 70 RU
- koff [8]: 0.000111 s⁻¹
- t½ [8]: 104 min
- 100 nM mfMPRSS2-MMH Bound (RU) [9]: 36.7 RU
- Kd [9]: 0.0141 nM
- koff [9]: 0.000109 s⁻¹
- kon [9]: 7.71e+06 M⁻¹ s⁻¹
- t½ [9]: 106 min
- t½ Ratio (pH 7.4/pH 6.0) [10]: 0.7

B2: mAb8029 (antibody, human IgG4 S228P, kappa, V domains shown)
VH: QLQLQESGPGLVKPSETLSLTCTVSGGSINSNSYYWGWIRQPPGKGLEWIGSIYYDRNTYYTPSLKSRVTISVDTSKNQFSLKLTSVTAADTAVYYCAREQVPGYYGMDVWGQGTTVTVSS
VL: DIQLTQSPSFLSASVGDRVTITCWASQGISRYLAWYQQKPGKTPKLLIYAASTLQSGVPSRFSGTGSGTDFTLTISNLQPEDFATYYCQQFDSYPWTFGQGTKVEIKR
notes: also called anti-TMPRSS2 mAb
- koff [11]: 0.00246 s⁻¹
- t½ [11]: 5 min
- Kd [12]: 9.75 nM
- koff [12]: 0.00209 s⁻¹
- kon [12]: 214000 M⁻¹ s⁻¹
- t½ [12]: 5.5 min
- koff [1]: 0.000615 s⁻¹
- t½ [1]: 19 min
- 100 nM mfTMPRSS2-MMH Bound (RU) [2]: 66.7 RU
- Kd [2]: 0.0609 nM
- koff [2]: 0.000196 s⁻¹
- kon [2]: 3.2e+06 M⁻¹ s⁻¹
- t½ [2]: 59.1 min
- t½ Ratio (pH 7.4/pH 6.0) [13]: 1
- 100 nm Ag Bound (RU) [3]: 90 RU
- koff [3]: 0.000408 s⁻¹
- t½ [3]: 28 min
- t½ Ratio (pH 7.4/pH 6.0) [4]: 0.8
- Kd [5]: 0.216 nM
- koff [5]: 0.000673 s⁻¹
- kon [5]: 3.12e+06 M⁻¹ s⁻¹
- t½ [5]: 17.2 min
- Kd [6]: 0.0592 nM
- koff [6]: 0.000129 s⁻¹
- kon [6]: 2.18e+06 M⁻¹ s⁻¹
- t½ [6]: 89.5 min
- Kd [14]: 3.33 nM
- koff [14]: 0.000442 s⁻¹
- kon [14]: 133000 M⁻¹ s⁻¹
- t½ [14]: 26.2 min
- koff [7]: 0.000624 s⁻¹
- t½ [7]: 19 min
- koff [15]: 0.00257 s⁻¹
- t½ [15]: 4 min
- 100 nm Ag Bound (RU) [8]: 94 RU
- koff [8]: 0.000339 s⁻¹
- t½ [8]: 34 min
- 100 nM mfMPRSS2-MMH Bound (RU) [9]: 35.3 RU
- Kd [9]: 0.0758 nM
- koff [9]: 0.000392 s⁻¹
- kon [9]: 5.17e+06 M⁻¹ s⁻¹
- t½ [9]: 29.5 min
- t½ Ratio (pH 7.4/pH 6.0) [10]: 1
